Test results as given in the DeepSol protein solubility set.

Assay: soluble on expression in E. coli; label from the status in PepcDB or PDB records

| Sequence | soluble on expression in E. coli |
| --- | --- |
| MLPDSSVRLNKYISESGICSRREADRYIEQGNVFLNGKRATIGDQVKPGDIVKVNGQLIEPREAEDLVLIALNKPVGIVSTTEDGERDNIVDFVNHSKRVFPIGRLDKDSQGLIFLTNHGDLVNKILRAGNDHEKEYLVTVDKPITDEFIRGMGAGVPILGTVTKKCKVKKEAPFVFRITLVQGLNRQIRRMCEHFGYEVKKLERTRIMNVSLSGIPLGEWRDLTDDELIDLFKLIENSSSEAKPKAKAKPKTAGIKRPVVKMEKTAEKGGRPASNGKRFTSPGRKKKGR | not soluble |
| MNTGAQIYRNSSSSIDKNIVDRIYKDGFLIAQYGLYMKRERDYKTFKVPVDAGFSCPNKDGTIDTRGCIFCPKMGRPISVEYCNIKYSLKDQIETQVKQNKEKGIGKFYVYFYPGTNTHGTPERLKELWDYALSFEDVIGISIGTRPDCLEDEKLDILENYVKQGYEIWIDLGIQTMHDKTLDFLNRKHSSNDIRRVLIECKKRGILVCGHIILGLPDESWNMMMETSKMLSDLEIDALKIYPLVVIENTELEEIYWKGEYKSLDEKQYIHLVSDFLEHLSPYVIIQRVSKDKVPDEIKISPEWSLRRLRILNEVSKELARRNSKQGSKYKK | not soluble |
| MAHHHHHHMAERKVLNKYIPPDFDPDKLMESKKLLKKIEKRKNRNQNKTKKKLMNIRMMYPFTLKCNKCKTFTYVGTKFNSRVEKLKDETYLNIPIWKFYGKCQECKNEIIFKTDPKNGDYLLIAGGTRTYDAHKEQELADDYYRNSNVKDEDKIKNTEKQSYNAMLELKMNEQLEELQNMNKRHLDKFSSINKALNRLYEKSELENKENNFFMNNLDSEDEKAFFSLLNKSRSSKDHIGDNLNKYNPSNNNWVNKNIEKDNIIIEEVELDDNKNNNDEVNEYISEGEGEHSDGNNINEVNESFSDLLLKKKKNRYEKENTVKIKQGNIDTEDKPKDNQQDKTNNISFKNTISNNSSSFSNIIHKPMFNKINKETNFNFVIKKKENFQSLLSEYNSDNSNESDN | not soluble |
| MGSDKIHHHHHHVSGPGLLPFRLTICGIDELPDHAAAGVSHVVTILDPQWPDPEHFALYPPHSRTIWRFHDIVNPQEGQAHPTMRDVEAILDYGTALKTETVEHLLIHCHMGISRSTATAIILMAQHNPGREAEAFTHLKAIRPFSWPNSRMVRMADDQLKRKGALVDAMRLHHHGVARRHPDKMAYLRTSERAAEVPPEE | not soluble |
| MAKLVTENISKRFKNQDVLKHINITLENNEVYGLLGINGAGKTTLMKIICGILQQDSGEIKLDNRPMTRNDLHKVGSLIETPATYNHLSAQDNLKIVCLNESVDFSEINSVLSLVNLNVDKKKKVKDFSLGMKQRLGIAMALIKKPEILVLDEPSNGLDPYGIQELRELLKLLTEQGTSIIISSHILSEIQVLADHIGIIHEGELKYQQRNNKDENLEEIFFKITKGDYK | not soluble |
| GMTRQRIAIDMDEVLADTLGAVVKAVNERADLNIKMESLNGKKLKHMIPEHEGLVMDILKEPGFFRNLDVMPHAQEVVKQLNEHYDIYIATAAMDVPTSFHDKYEWLLEYFPFLDPQHFVFCGRKNIILADYLIDDNPKQLEIFEGKSIMFTASHNVYEHRFERVSGWRDVKNYFNSIEK | soluble |
| MSLTQVHFTLKSEEIQSIIEYSVKDDVSKNILTTVFNQLMENQRTEYIQAKEYERTENRQSQRNGYYERSFTTRVGTLELKVPRTRDGHFSPTVFERYQRNEKALMASMLEMYVSGVSTRKVSKIVEELCGKSVSKSFVSSLTEQLEPMVNEWQNRLLSEKNYPYLMTDVLYIKVREENRVLSKSCHIAIGITKDGDREIIGFMIQSGESEETWTTFFEYLKERGLQGTELVISDAHKGLVSAIRKSFTNVSWQRCQVHFLRNIFTTIPKKNSKSFREAVKGIFKFTDINLAREAKNRLIHDYIDQPKYSKACASLDDGFEDAFQYTVQGNSHNRLKSTNLIERLNQEVRRREKIIRIFPNQTSANRLIGAVLMDLHDEWIYSSRKYINFDKEGHHHHHH | soluble |
| MGEETIAAIATGAGEGGIGIVRISGADALQVAERIFRPRRGRPLGCRRSHTVTYGWVVTPGGDRIDEALALVMRGPHSYTGEDVVELQCHGGQLAVRRVLEQALQAGARLAEPGEFTRRAFLNGRLDLSQAEAVVDLIRAKTDRAMAAAVAHLGGSLRQAVGRIRERLMEMMAHLEADIDFPELELEVQTREEVAAGCGWCLGEVERLLGGARTGRILREGLRAVLAGRPNVGKSSLLNRLVRENRAIVTPIPGTTRDVIAEWVELGGVPVQLFDTAGLRPTDDPVERIGVARTHEALAQAHLVLVVVDAAAGLGPEDREWISQLPQGAARVGVANKIDLNPAFELSALREALGGAPVVGVSAETGEGLDALEAEVARVAGAFDASEELLVNTRQAEAIRRARNHLRDAQATLESGLGDELVAIDLRAAWMALGEVTGETAGEELLDQIFSRFCIGK | soluble |
| VFIDESKEHLQTCNEKLLLLEKDPTDLQLVHDIFRAAHTLKGMSATMGYTDLAHLTHLLENVLDAIRNGDMEVTSDWLDILFEALDHLETMVQSIIDGGDGKRDISEVSAKLDVNGAHAESAASAEPAEAQSSASDWEYDEFERTVIQEAEEQGFKRYEIKISLNENCMLKAVRVYMVFEKLNEVGEVAKTIPSAEVLETEDFGTDFQVCFLTHQSAEDIEQLINGVSEIEHVEVIQGAPLTSAEKPEESKQEDSPAAAVPANEEKQKQPAKNDEQAKHSAGGSKTIRVNIDRLDSLMNLFEELVIDRGRLEQIAKELEHNELTETVERMTRISGDLQSIILNMRMVPVETVFNRFPRMIRQLQKELNKKIELSIIGAETELDRTVIDEIGDPLVHLIRNSIDHGIEAPETRLQKGKPESGKVVLKAYHSGNHVFIEVEDDGAGLNRKKILEKPLERVITEKEAETLEDNQIYELIFAPGFSTADQISDISGRGVGLDVVKNKLESLGGSVSVKSAEGQGSLFSIQLPLTLSIISVLLIKLEEETFAIPISSIIETAVIDRKDILQTHDREVIDFRGHIVPVVYLKEEFKIEDTRKDAEQLHIIVVKKGDKPTAFVVDSFIGQQEVVLKSLGDYLTNVFAISGATILGDGEVALIID | not soluble |
| MEVFVFTPKGDLYKMPKGATVLDFAFAIHSKLGSKCIGAKVNGKNAQLKQTLNSGDQVEVMTSNTQTPKLEHHHHHH | not soluble |
| GPGSMLARGCVLRWHAVSARRVLGLHDGQSYTPADIKKAFRERALTAHPDAGGDADGFRQLQRAYEVLLHEHSVGKKGSEAAAASDDSEGGSGFYAHPHAEWCNDMRSQRAYWRDMYTEMNMNPNSCGSHRHASNTHYQARQHYRTYGEGLGEDFQKEFKSSSFAGGGQRGSQMNFSTWYFYRPYYSNYRNPFGTGFTPEEIRRAEQEQRRGFARAVARHACLWSGLAFVVYLHERNNRVWRAVEARDKGYKDPEYWEQLRKDEEEARRRSRAPLRLEQHWLDAPLMRSLMDLTEGGHSGGCGKNGQDAEDNISGAARAGTAWATQQARMAQERRRQAMSSTRGMRRGASGDVGGPRVVSYQGRPFTPNGVRGMRNTAPKTPKTYADDVTYEMDDDDDV | not soluble |
| MGSDKIHHHHHHMERAMKILAHRGWWLEPVEKNSETAFRRAFENGFGVETDTRDQNGVLKIAHDMPVGDQVMDLDYFLDLHKSYAGSGTIAMNIKADGLHKALRASLEGAGITDLFCFDMAVPDAIGYLNNGFITYTRHSELEPLPPFYDKAQGVWLDAFYSDWITPDVIQKHLDAGKKVALVSPELHGRDHTAAWDVWGDLTGDDISICTDLPHLAAEKWG | not soluble |
| GIDPFTRDGPLVLIGSGLSSEQQKMLSELAVILKAKKYTEFDSTVTHVVVPGDAVQSTLKCMLGILNGCWILKFEWVKACLRRKVCEQEEKYEIPEGPRRSRLNREQLLPKLFDGCYFYLWGTFKHHPKDNLIKLVTAGGGQILSRKPKPDSDVTQTINTVAYHARPDSDQRFCTQYIIYEDLCNYHPERVRQGKVWKAPSSWFIDCVMSFELLPLDS | soluble |
| MSAPAAGATAGGDDAADRNVEMWKIKRLIKSLELARGNGTSMISLIIPPKDQVARIQRMLAEEYGTASNIKSRVNRLSVLGAITSVQGRLKLYNKVPPNGLVVYCGTIMTDEGKEKKVNIDFEPFKAINTSLYLCDNKFHTEALQGLLADDNKFGFIIMDGNGCLFGTLQGNTREVLHKFTVDLPKKHGRGGQSAVRFARLRNEKRHNYVRKVAENSVEQFIKNDKVTVAGLILAGSADFKTELGQSDMFDQRLQAKMIKTVDIAYGGENGFNQAIELAADTLASVKFIQEKKLIGGYFDEISQDTGKYVFGVKDTLAALEMGAIETLICWENLDIVRYKMKNSLGEDILLNLRPDEEKDKSHFTDSETGQDMEIIETMPLLEWFANNYKNFGAALEIVTDKSQEGAQFVRGFGGIGGLLRYRVDLAHVDLEDELDNIDLDDY | not soluble |
| MGSDKIHHHHHHMSIFVKTFGGTRVIKDNDIVSARDWPSQKAFALFRYLIFRRNEEVSVEEIYNLFWEDMDDTFAKSNLNTTLHIIRKTTGITSEELFVKGDLCCFFPGGEITIDADIFEECHRNLMKATSDAEREKLLKRMFEIYTGPFLVEDIFAEWVQEIREIYESWYSDVLKELFKLYLSKKDYDAALEMVNAYFQREPYDEDMYYRAIEVLLKKGDITRAKRVYDKLSSHLMEIGIKPRLKFDDFLSKRDSEFMLNGNKAVVVDEKLFERFLFLESRRREKSFVLVEVKLTDKSISTEDVSQRVASQLRKGDVITFSGETIRILFHCPEQRRPTMEKRVVDALEKVGVKKGQYEIS | not soluble |
| MDVTFLTKNVQINGTQFKILLQNGQGECALIALANVLLISPAHARYAQEISRLVRGKETVTLNELVQTLADMGVQNPNGTDVDKQQLLQILPQLYSGLNINPEFNGSFEDGVEMSIFRLYNVGIVHGWIIDGDNDPNSYEHVSKYSYMGAQKVLVQSYEIQKNNAQFENSEQIQSDAPYLKSFLARSATQLTEYGLTHLREILVERSYAVLFRNDHFCTLYKNNGELFTLVTDPTYRNRKDINWQSLKSVNGSQDSYYTGNFIPTSLERTETTATGQNESYISNPFSDQNTGHVTSNQVNSGASGVQQIEDDEELARRLQEQEDMRAANNMQNGYANNGRNHQRERFERPEKNSKKNKFLPFNGSNKEKKRDKLKKNCVIM | soluble |
| MLQVCCYTSEGYKYAVGIDLVRFFDTVNHSFLLRILSRTINDGRVISLIHKYLTSGVMIGKHYEPSIEGTPQGAPLSPLLSNILLNELDKELERRGHCFVRYADDSMILCKSKRSAERVCSSITDFSFYFTKGKCRLCVHKTTKEKFKRKVKSLTRRSNSMGYAQRKEILWQTFRGWIGYFKYADMRSLLIPLDQWYRRHLRMCIWKCWKRVKTRFSNLQKCGIPKGKALEHHHHHH | soluble |
| MAHHHHHHMGLKFYVLVFLILCLKNVVKGDKCETEFSKLYPESNSLTGLIYAHTANVHKLSMWVYFIYNHFSSADELIKYLEKTNINTLENSDHTCFARAVTLYLFYYYLKDIKSMLSTDDYQSFFKNKFKDINPLFINDFILILNDKKFMENLDLYIMKESEREHLVIKKNPFLRVLNKASTTTHATYKSNPYFIVGSRVHTPYKDYLGDFNKYTEISVLNYVRDYNFLIYAGSRENYYNSDIAGPARSVNNVISKNKTLGLRKRSSSLALVGTNNNDPIFAYCEKDNKSEYYGTPDDLITSFFSIIKTKMLNSHKTFLRQFDYALFHKTYSIPNLKGFRFLKHLFQKKNLVNFVGMYENHVSTEINFLAEDFVELFDVTMDCYSRQYSNRAAENFKAIRELNVL | not soluble |
| MDTDIRDFIIEDDLFDPFMDENEDDDRAEIDEEPETPLIGEPLDEWKKPVEDWRPAQVRIKDLFEEMPGQKRMMLKIIDYCREERTGEEMDVFTNDLKQYCYSVYSPVVFRELLEEAGAIEYIKPDEPEGSQDAAQSEERAQAGGELPEEAVSPHRGDVYGTLPVDDESTLVPIDGADIVHESYIEGDEEIQMDFLEITPCEPGTWKATEAGLEAVDSMDDLDGTKELLGKEPKYLDIYHQILDYCQDEYGRSSKEIDKLVNDSPLLEEPRRYSGYFVSRLEKQGALEWRNGWFVTEVGKKIIEEAAAHV | not soluble |
